# Source: patent US20220333113
# Changes are numbered by the printed parent chain.
# Legend:
# [1] = biological target: T1, RIG-I K849A (Homo sapiens) (UniProt O95786); test: filter; conditions: J = PPdU at every J; SB18T0.01 + 1 mM DTT, 37 C
# T1 sequence: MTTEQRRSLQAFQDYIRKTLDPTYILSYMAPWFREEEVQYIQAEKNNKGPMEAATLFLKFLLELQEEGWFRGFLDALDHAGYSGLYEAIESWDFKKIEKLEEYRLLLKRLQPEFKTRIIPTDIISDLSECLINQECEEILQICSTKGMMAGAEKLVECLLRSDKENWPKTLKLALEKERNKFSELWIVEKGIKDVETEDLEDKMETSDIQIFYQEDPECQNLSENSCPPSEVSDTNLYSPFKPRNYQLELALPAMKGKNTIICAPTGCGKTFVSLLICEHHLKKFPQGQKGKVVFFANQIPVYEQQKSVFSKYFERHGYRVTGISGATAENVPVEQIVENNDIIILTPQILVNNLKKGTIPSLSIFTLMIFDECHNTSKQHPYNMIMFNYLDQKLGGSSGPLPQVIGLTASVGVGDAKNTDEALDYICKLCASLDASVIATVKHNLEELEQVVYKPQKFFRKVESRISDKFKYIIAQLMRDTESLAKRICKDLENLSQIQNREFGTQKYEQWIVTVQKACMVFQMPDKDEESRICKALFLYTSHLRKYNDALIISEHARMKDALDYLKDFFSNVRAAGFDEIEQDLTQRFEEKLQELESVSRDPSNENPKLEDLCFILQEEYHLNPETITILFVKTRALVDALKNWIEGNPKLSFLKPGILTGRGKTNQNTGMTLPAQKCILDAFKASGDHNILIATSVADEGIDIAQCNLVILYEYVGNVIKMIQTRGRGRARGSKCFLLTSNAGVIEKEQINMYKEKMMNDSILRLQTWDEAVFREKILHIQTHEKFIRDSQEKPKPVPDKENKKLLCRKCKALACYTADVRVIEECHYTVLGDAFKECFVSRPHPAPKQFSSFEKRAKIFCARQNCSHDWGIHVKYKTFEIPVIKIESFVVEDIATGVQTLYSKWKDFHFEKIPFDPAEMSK
# [2] = biological target: T2, RIG-I K861A (Homo sapiens) (UniProt O95786); test: filter; conditions: J = PPdU at every J; SB18T0.01 + 1 mM DTT, 37 C
# T2 sequence: T1 sequence with A849K, K861A
# [3] = biological target: T3, RIG-I CTD (aa 792-925) (Homo sapiens) (UniProt O95786); test: EMSA; conditions: J = PPdU at every J; SB18T0.01 + 20% glycerol, 1 mM DTT, 37 C
# T3 sequence: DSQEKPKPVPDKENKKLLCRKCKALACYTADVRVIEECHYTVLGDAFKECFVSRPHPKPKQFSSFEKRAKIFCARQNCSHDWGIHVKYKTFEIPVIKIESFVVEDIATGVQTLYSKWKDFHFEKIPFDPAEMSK
sequence,measurement,setting,value
ATCTCTGTGTCATGTGTTTTAATGTCAGTTTAATGATGAGG [14832-55_8],Kd,[1],0.62 nM
same,Kd,[2],0.89 nM
same,Kd,[3],0.019 nM
